Substrate: NCCCNCCCCNCCCN
Test: purified protein, by the assay type
Details: other: apparent value, air-saturated 50 mM KH2PO4/KOH buffer pH 7.6, [O2] 237 μM

B1: mPAO (Mus musculus) (protein)
chain: MAFPGPRVLVVGSGIAGLGAAQKLCSHRAAPHLRVLEATASAGGRIRSERCFGGVVELGAHWIHGPSQDNPVFQLAAEFGLLGEKELSEENQLVDTGGHVALPSMIWSSSGTSVSLELMTEMARLFYGLIERTREFLNESETPMASVGEFLKKEISQQVASWTEDDEDTRKRKLAILNTFFNIKCCVSGTHSMDLVALAPFGEYTVLPGLDCILAGGYQGLTDRILASLPKDTVAFDKPVKTIHWNGSFQEAAFPGETFPVLVECEDGARLPAHHVIVTVPLGFSKEHQDTFFEPPLPAKKAEAIKKLGFGTNNKIFLEFEEPFWEPDCQFIQVVWEDTSPLQDTALSLQDTWFKKLIGFLVQPSFESSHVLCGFIAGLESEFMETLSDEEVLLSLTQVLRRVTGNPQLPAAKSVLSSRWHSAPYTRGSYSYVAVGSTGDDLDLMAQPLPADGTGTQLQVLFAGEATHRTFYSTTHGALLSGWREADRLIGLWDSQAEQSRPRL
For B1, the kcat was 0.175 s⁻¹ and the kcat/Km was 247 M⁻¹ s⁻¹.

Source: patent US20050143472A1, “Novel treatment for pathologies associated with oxidative damage” (priority 2002, published 2005)
